Residue numbers refer to the chain shown, from its start.
B1: DOMAIN_15279 (protein, listed as Callithrix jacchus)
chain: VNDLVTFKDVAIDFSQEEWQWMNPAQKRLYRSMMLENYQSLVSLGLCVSKPYVISLLEQGREPWEMTSEMRRSPFSDWESI
B2: DOMAIN_15227 (protein, listed as Rhinopithecus roxellana)
chain: MAFEDVAVYFSQEEWGLLDTAQRALYRHVMLDNFTLVTSLGLSTSRPHVVIQLERGEEPWVPSGKDMTLARNTYRRLNAGE
B3: DOMAIN_15451 (protein)
chain: PLKLVTFEDVAVDFTQEEWSLLDKSQKNLFRNVMMETIHHLVSVGYQISKSDVISQLEQGKELWSKAAGGFQGQRPGEHQG
modifications: Bison bison
B4: DOMAIN_15251 (protein, listed as Callithrix jacchus)
chain: AAGRVTFEDVTVSFTKGEWQQLNPEQRELYRDVMLENYGNLVSVGLEETSKPSVILRLEEGKEPWSEEEVLRGGRPEKNWD
B5: DOMAIN_15669 (protein, listed as Callorhinus ursinus)
chain: FQDSVTFEDVAVRFSSGEWQCLTRAQRHLYADVMLENYWNVISVGFAVPKPPLISHLEQGAEPCVQDLQDGGFLSCSFPVS
B6: DOMAIN_15269 (protein)
chain: YRGPVTFKDITVEFTREEWKLLDTAQRTLYREVMQENYSHLISVGYCANRPNAIFKLKQGKEPWILEVQFPRQKNPEDLCN
modifications: Ovis aries
B7: DOMAIN_14983 (protein, listed as Rhinopithecus roxellana)
chain: MAFEDVAVYFSQEEWGLLDTAQRALYRRVMLDNFALVASLGLSTSRPRVVIQLERGEEPWVPSGTDTVLSRNTYRRRNPGS
B8: DOMAIN_15406 (protein)
chain: B2 chain with H28R, T35A, T38A, H48R, R75G, A79S, E81S
modifications: Pan troglodytes
B9: DOMAIN_15638 (protein, listed as Sapajus apella)
chain: B7 chain with T67M, V68T, L69M, Y74H, P79S, S81F
B10: DOMAIN_15138 (protein)
chain: CEGSVSFEDVTMDFSREEWQQLDPAQRCLYQDVMLEIYSHLLFVGYNIPNPEIISRMEKGEEPWMREVQLPHQRHRERAFG
modifications: Vulpes vulpes
B11: DOMAIN_15356 (protein, listed as Acinonyx jubatus)
chain: TPDVVTFEDVAVCFSSGEWQCLTRAQRHLYTDVMLENYGNMLSAGLACPKPPLISHLEQGAVPCAEDLQDWGFLTCSFPVS
B12: DOMAIN_14946 (protein, listed as Acinonyx jubatus)
chain: LQVSVSFEDVTVNFSREEWQRLDPAQRRLYRDVTLENYSHLRSVGYQVPKPEVIFKLEQGEGPWTLEGETPHQSCSGEDIG
B13: DOMAIN_15089 (protein)
chain: SQELVAFEDVLVDFTPEEWQYLNSSQKTLYREVMLETYSNLVSVAGQQDTKPDLILKLELEGPCLAERKISVWSFPEEACQ
modifications: Vulpes vulpes
B14: DOMAIN_15184 (protein, listed as Acinonyx jubatus)
chain: ASVVFEDVAVNFTPEEWALLNPGQRKLYRDVMLETCRNLSAVGCRSQGNTSTPRPQWSILLNEPPGEDKTGIFTRKDSCSV
B15: DOMAIN_24125 (protein, listed as Saimiri boliviensis)
chain: B7 chain with S45T, T67M, V68T, L69M, T73A, Y74H

system: HBEGF locus; assay type: cell-based, human; details: high-throughput screen of dXR repression of the HBEGF gene; abundance of each domain in the library before and after diphtheria toxin selection; HEK293T cells

| Molecule | Log2 (fold change) |
| --- | --- |
| B1 | 3.8574 |
| B2 | 3.5532 |
| B3 | 3.2905 |
| B4 | 2.2209 |
| B5 | 2.8865 |
| B6 | 2.0839 |
| B7 | 3.704 |
| B8 | 3.4616 |
| B9 | 3.4277 |
| B10 | 3.1771 |
| B11 | 3.5466 |
| B12 | 3.2842 |
| B13 | 2.3585 |
| B14 | 3.0092 |

same assay, conditions: high-throughput screen of dXR repression of the HBEGF gene; change in abundance of each domain in the library before and after diphtheria toxin selection

| Molecule | Log2 (fold change) |
| --- | --- |
| B15 | 3.9692 |
